Source: the supplement of paper PMC9112550, “Optimization of the antimicrobial peptide Bac7 by deep mutational scanning” (BMC Biology, 2022)

Tested on: Escherichia coli TOP10
Assay: shrunken log2 fold change of peptide-encoding DNA abundance (4.5 h post-induction vs induction); higher = less antimicrobial activity (less host growth inhibition)
Conditions: time post-induction: 4.5 h; library: site-saturation at positions 5, 18, 19, 20
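Note: peptides expressed intracellularly from a pBAD plasmid library in pooled LB shake-flask culture, induced with 0.3% L-arabinose, DNA abundance read by NGS, three biological replicates, DESeq2 with apeglm shrinkage.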

Sequence	shrunken log2 fold change
RRIRRRPPRLPRPRPRPEIVPRP	0.246
RRIRRRPPRLPRPRPRPEKEPRP	0.224
RRIRRRPPRLPRPRPRPEKNPRP	0.289
RRIRRRPPRLPRPRPRPEKTPRP	0.00726
RRIRRRPPRLPRPRPRPEKVPRP	0.448
RRIRRRPPRLPRPRPRPELLPRP	0.147
RRIRRRPPRLPRPRPRPELPPRP	0.695
RRIRRRPPRLPRPRPRPEMTPRP	0.638
RRIRRRPPRLPRPRPRPENIPRP	-0.468
RRIRRRPPRLPRPRPRPENKPRP	-0.0891
RRIRRRPPRLPRPRPRPEPQPRP	1.03
RRIRRRPPRLPRPRPRPEPRPRP	1.02
RRIRRRPPRLPRPRPRPEQFPRP	0.212
RRIRRRPPRLPRPRPRPEQIPRP	0.0197
RRIRRRPPRLPRPRPRPEQLPRP	0.203
RRIRRRPPRLPRPRPRPEQWPRP	-0.173
RRIRRRPPRLPRPRPRPERGPRP	0.798
RRIRRRPPRLPRPRPRPERLPRP	0.474
RRIRRRPPRLPRPRPRPESDPRP	0.6
RRIRRRPPRLPRPRPRPESIPRP	-0.195
RRIRRRPPRLPRPRPRPETLPRP	0.0675
RRIRRRPPRLPRPRPRPETVPRP	-0.11
RRIRRRPPRLPRPRPRPEVAPRP	0.345
RRIRRRPPRLPRPRPRPEVWPRP	1.74
RRIRRRPPRLPRPRPRPEWIPRP	0.361

Sequence	shrunken log2 fold change
RRIRRRPPRLPRPRPRPEWQPRP	0.0758
RRIRRRPPRLPRPRPRPEWWPRP	-0.0131
RRIRRRPPRLPRPRPRPEYKPRP	-0.0169
RRIRRRPPRLPRPRPRPEYWPRP	0.0322
RRIRRRPPRLPRPRPRPFAQPRP	0.199
RRIRRRPPRLPRPRPRPFCGPRP	0.143
RRIRRRPPRLPRPRPRPFERPRP	0.0145
RRIRRRPPRLPRPRPRPFFGPRP	0.159
RRIRRRPPRLPRPRPRPFGCPRP	0.222
RRIRRRPPRLPRPRPRPFIWPRP	0.0601
RRIRRRPPRLPRPRPRPFKCPRP	-0.135
RRIRRRPPRLPRPRPRPFKKPRP	-0.0451
RRIRRRPPRLPRPRPRPFKNPRP	0.0357
RRIRRRPPRLPRPRPRPFKSPRP	-0.336
RRIRRRPPRLPRPRPRPFLDPRP	0.0172
RRIRRRPPRLPRPRPRPFMAPRP	0.113
RRIRRRPPRLPRPRPRPFMCPRP	0.0373
RRIRRRPPRLPRPRPRPFNDPRP	0.0417
RRIRRRPPRLPRPRPRPFPHPRP	0.292
RRIRRRPPRLPRPRPRPFPIPRP	0.199
RRIRRRPPRLPRPRPRPFPTPRP	0.164
RRIRRRPPRLPRPRPRPFRYPRP	0.292
RRIRRRPPRLPRPRPRPFSAPRP	-0.274
RRIRRRPPRLPRPRPRPFSTPRP	-0.0277
RRIRRRPPRLPRPRPRPFTEPRP	-0.267

Sequence	shrunken log2 fold change
RRIRRRPPRLPRPRPRPFVFPRP	0.274
RRIRRRPPRLPRPRPRPFWDPRP	-0.0897
RRIRRRPPRLPRPRPRPFWSPRP	0.18
RRIRRRPPRLPRPRPRPFYQPRP	-0.46
RRIRRRPPRLPRPRPRPGAGPRP	0.475
RRIRRRPPRLPRPRPRPGAMPRP	0.337
RRIRRRPPRLPRPRPRPGAYPRP	0.00783
RRIRRRPPRLPRPRPRPGCFPRP	0.5
RRIRRRPPRLPRPRPRPGCNPRP	0.327
RRIRRRPPRLPRPRPRPGDLPRP	1.58
RRIRRRPPRLPRPRPRPGEPPRP	0.41
RRIRRRPPRLPRPRPRPGFWPRP	0.333
RRIRRRPPRLPRPRPRPGHIPRP	-0.116
RRIRRRPPRLPRPRPRPGLAPRP	0.763
RRIRRRPPRLPRPRPRPGLIPRP	0.238
RRIRRRPPRLPRPRPRPGLQPRP	-0.0644
RRIRRRPPRLPRPRPRPGMIPRP	-0.00969
RRIRRRPPRLPRPRPRPGNQPRP	0.0401
RRIRRRPPRLPRPRPRPGNSPRP	0.119
RRIRRRPPRLPRPRPRPGPEPRP	0.662
RRIRRRPPRLPRPRPRPGPGPRP	0.598
RRIRRRPPRLPRPRPRPGQCPRP	0.22
RRIRRRPPRLPRPRPRPGQDPRP	0.112
RRIRRRPPRLPRPRPRPGQHPRP	-0.0579
RRIRRRPPRLPRPRPRPGQMPRP	0.0545

Sequence	shrunken log2 fold change
RRIRRRPPRLPRPRPRPGRGPRP	0.805
RRIRRRPPRLPRPRPRPGRKPRP	0.332
RRIRRRPPRLPRPRPRPGSGPRP	0.407
RRIRRRPPRLPRPRPRPGSKPRP	-0.0919
RRIRRRPPRLPRPRPRPGTGPRP	0.21
RRIRRRPPRLPRPRPRPGVKPRP	0.187
RRIRRRPPRLPRPRPRPGYWPRP	0.535
RRIRRRPPRLPRPRPRPHAFPRP	-0.103
RRIRRRPPRLPRPRPRPHCHPRP	-0.134
RRIRRRPPRLPRPRPRPHCTPRP	-0.18
RRIRRRPPRLPRPRPRPHCWPRP	0.11
RRIRRRPPRLPRPRPRPHDDPRP	0.341
RRIRRRPPRLPRPRPRPHDHPRP	3.24
RRIRRRPPRLPRPRPRPHDYPRP	-0.0628
RRIRRRPPRLPRPRPRPHEKPRP	0.0358
RRIRRRPPRLPRPRPRPHFCPRP	0.00733
RRIRRRPPRLPRPRPRPHFHPRP	-0.217
RRIRRRPPRLPRPRPRPHFLPRP	-0.196
RRIRRRPPRLPRPRPRPHGVPRP	0.055
RRIRRRPPRLPRPRPRPHGWPRP	0.784
RRIRRRPPRLPRPRPRPHIEPRP	-0.00196
RRIRRRPPRLPRPRPRPHITPRP	-0.385
RRIRRRPPRLPRPRPRPHKFPRP	-0.132
RRIRRRPPRLPRPRPRPHKPPRP	-0.176
RRIRRRPPRLPRPRPRPHKVPRP	0.0772

Sequence	shrunken log2 fold change
RRIRRRPPRLPRPRPRPHLAPRP	-0.0318
RRIRRRPPRLPRPRPRPHLCPRP	0.189
RRIRRRPPRLPRPRPRPHLVPRP	0.127
RRIRRRPPRLPRPRPRPHLYPRP	0.176
RRIRRRPPRLPRPRPRPHMAPRP	-0.128
RRIRRRPPRLPRPRPRPHNCPRP	0.163
RRIRRRPPRLPRPRPRPHNFPRP	-0.0578
RRIRRRPPRLPRPRPRPHNMPRP	-0.697
RRIRRRPPRLPRPRPRPHNSPRP	0.0175
RRIRRRPPRLPRPRPRPHQCPRP	-0.0941
RRIRRRPPRLPRPRPRPHQLPRP	-0.225
RRIRRRPPRLPRPRPRPHREPRP	-0.0451
RRIRRRPPRLPRPRPRPHRVPRP	-0.0232
RRIRRRPPRLPRPRPRPHSFPRP	0.199
RRIRRRPPRLPRPRPRPHSMPRP	-0.118
RRIRRRPPRLPRPRPRPHTGPRP	-0.105
RRIRRRPPRLPRPRPRPHVHPRP	0.0274
RRIRRRPPRLPRPRPRPHVWPRP	0.242
RRIRRRPPRLPRPRPRPHWSPRP	-0.0676
RRIRRRPPRLPRPRPRPHWTPRP	-0.12
RRIRRRPPRLPRPRPRPHYGPRP	-0.178
RRIRRRPPRLPRPRPRPICRPRP	0.378
RRIRRRPPRLPRPRPRPIDHPRP	-0.12
RRIRRRPPRLPRPRPRPIDIPRP	-0.118
RRIRRRPPRLPRPRPRPIHCPRP	-0.0105

Sequence	shrunken log2 fold change
RRIRRRPPRLPRPRPRPIIQPRP	-0.342
RRIRRRPPRLPRPRPRPIKEPRP	0.0124
RRIRRRPPRLPRPRPRPILNPRP	-0.0188
RRIRRRPPRLPRPRPRPILWPRP	0.0428
RRIRRRPPRLPRPRPRPIMWPRP	0.121
RRIRRRPPRLPRPRPRPINHPRP	-0.273
RRIRRRPPRLPRPRPRPINMPRP	-0.271
RRIRRRPPRLPRPRPRPINPPRP	0.00585
RRIRRRPPRLPRPRPRPIPDPRP	0.277
RRIRRRPPRLPRPRPRPIPFPRP	-0.175
RRIRRRPPRLPRPRPRPIPNPRP	0.349
RRIRRRPPRLPRPRPRPIRWPRP	0.0197
RRIRRRPPRLPRPRPRPITHPRP	-0.287
RRIRRRPPRLPRPRPRPIVAPRP	0.174
RRIRRRPPRLPRPRPRPIYDPRP	-0.0515
RRIRRRPPRLPRPRPRPKCPPRP	0.278
RRIRRRPPRLPRPRPRPKFKPRP	-0.046
RRIRRRPPRLPRPRPRPKFNPRP	0.00967
RRIRRRPPRLPRPRPRPKGPPRP	0.465
RRIRRRPPRLPRPRPRPKHCPRP	0.294
RRIRRRPPRLPRPRPRPKHSPRP	0.0683
RRIRRRPPRLPRPRPRPKKEPRP	-0.0417
RRIRRRPPRLPRPRPRPKKMPRP	0.318
RRIRRRPPRLPRPRPRPKKRPRP	0.976
RRIRRRPPRLPRPRPRPKKTPRP	-0.0163
